Laboratory results: paper PMC9482650, “Quantitative fragmentomics allow affinity mapping of interactomes” (Nature Communications, 2022)

Tests used:
Assay in all cases: holdup assay
Set-up in all cases: key: below the threshold = too weak to quantify, mostly under pKd 3.1 to 4
APBA1_2, Q02410 = target: T1, APBA1_2, Q02410
T1 sequence (Q02410 742-832, limits assumed, looked up): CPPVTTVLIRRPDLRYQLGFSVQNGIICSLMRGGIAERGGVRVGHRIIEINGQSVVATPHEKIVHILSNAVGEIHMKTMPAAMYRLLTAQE

DFNB31_3, Q9P202 = target: T2, DFNB31_3, Q9P202
T2 sequence (Q9P202 811-907, limits assumed, looked up): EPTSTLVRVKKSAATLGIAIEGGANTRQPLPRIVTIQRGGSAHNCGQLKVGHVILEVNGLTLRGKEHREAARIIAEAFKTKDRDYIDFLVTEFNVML

DLG2_3, Q15700 = target: DLG2_3, Q15700
FRMPD1, Q5SYB0 = target: T3, FRMPD1, Q5SYB0
T3 sequence (Q5SYB0 52-145, limits assumed, looked up): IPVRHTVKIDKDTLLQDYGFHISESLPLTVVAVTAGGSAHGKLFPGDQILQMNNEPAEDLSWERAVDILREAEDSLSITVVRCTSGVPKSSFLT

FRMPD2_1, Q68DX3 = target: FRMPD2_1, Q68DX3
FRMPD3, Q5JV73 = target: FRMPD3, Q5JV73
FRMPD4, Q14CM0 = target: FRMPD4, Q14CM0
GRIP1_4, Q9Y3R0 = target: T4, GRIP1_4, Q9Y3R0
T4 sequence (Q9Y3R0 467-571, limits assumed, looked up): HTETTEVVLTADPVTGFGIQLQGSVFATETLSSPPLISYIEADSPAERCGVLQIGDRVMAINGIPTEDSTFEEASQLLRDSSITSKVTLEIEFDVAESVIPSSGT

GRIP1_5, Q9Y3R0 = target: T5, GRIP1_5, Q9Y3R0
T5 sequence (Q9Y3R0 568-668, limits assumed, looked up): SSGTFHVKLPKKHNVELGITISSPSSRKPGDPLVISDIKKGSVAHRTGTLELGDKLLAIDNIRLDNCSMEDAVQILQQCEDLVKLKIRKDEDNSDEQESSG

Inadl_1, Q8NI35 = target: Inadl_1, Q8NI35
Inadl_10, Q8NI35 = target: Inadl_10, Q8NI35
Inadl_4, Q8NI35 = target: Inadl_4, Q8NI35
Inadl_6, Q8NI35 = target: Inadl_6, Q8NI35
LNX1_3, Q8TBB1 = target: LNX1_3, Q8TBB1
LNX2_2, Q8N448 = target: T6, LNX2_2, Q8N448
T6 sequence (Q8N448 334-432, limits assumed, looked up): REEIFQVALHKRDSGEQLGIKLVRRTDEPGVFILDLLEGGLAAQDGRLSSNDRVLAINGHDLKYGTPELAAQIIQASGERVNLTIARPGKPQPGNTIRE

MAGI2_3, Q86UL8 = target: MAGI2_3, Q86UL8
MAGI3_2, Q5TCQ9 = target: MAGI3_2, Q5TCQ9
MPDZ_5, O75970 = target: T7, MPDZ_5, O75970
T7 sequence (O75970 695-796, limits assumed, looked up): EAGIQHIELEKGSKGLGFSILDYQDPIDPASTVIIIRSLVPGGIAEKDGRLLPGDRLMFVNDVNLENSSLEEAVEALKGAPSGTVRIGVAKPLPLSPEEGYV

NHERF4_2, Q86UT5 = target: NHERF4_2, Q86UT5
NOS1, P29475 = target: NOS1, P29475
PARD3B_1, Q8TEW8 = target: T8, PARD3B_1, Q8TEW8
T8 sequence (Q8TEW8 196-299, limits assumed, looked up): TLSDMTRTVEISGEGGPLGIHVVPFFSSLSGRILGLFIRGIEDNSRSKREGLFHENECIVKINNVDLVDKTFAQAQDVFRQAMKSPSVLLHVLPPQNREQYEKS

PDLIM1, O00151 = target: PDLIM1, O00151
PDZD7_3, Q9H5P4 = target: T9, PDZD7_3, Q9H5P4
T9 sequence (Q9H5P4 857-944, limits assumed, looked up): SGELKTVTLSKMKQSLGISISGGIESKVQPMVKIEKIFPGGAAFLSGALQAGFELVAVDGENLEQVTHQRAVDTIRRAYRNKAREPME

PDZRN4_1, Q6ZMN7 = target: PDZRN4_1, Q6ZMN7
PTPN3, P26045 = target: PTPN3, P26045
SHANK1, Q9Y566 = target: T10, SHANK1, Q9Y566
T10 sequence (Q9Y566 658-767, limits assumed, looked up): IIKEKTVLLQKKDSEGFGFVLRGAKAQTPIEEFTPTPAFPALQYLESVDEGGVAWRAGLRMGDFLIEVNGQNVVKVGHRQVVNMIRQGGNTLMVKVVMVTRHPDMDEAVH

SIPA1L2, Q9P2F8 = target: T11, SIPA1L2, Q9P2F8
T11 sequence (Q9P2F8 945-1036, limits assumed, looked up): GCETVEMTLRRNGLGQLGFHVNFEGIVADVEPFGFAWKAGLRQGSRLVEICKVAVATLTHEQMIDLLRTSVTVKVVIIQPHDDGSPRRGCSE

[1] = plain residues with an end cap or a label only (N-terminal biotin on a linker: ttds)
[2] = plain residues with an end cap or a label only (N-terminal biotin on a linker: ahx)
[3] = plain residues with an end cap or a label only (N-terminal biotin on a linker: gsgsgs; C-terminal amide)

Measured: pKd

Sequence of NHERF4_2, Q86UT5 (Q86UT5 220-308): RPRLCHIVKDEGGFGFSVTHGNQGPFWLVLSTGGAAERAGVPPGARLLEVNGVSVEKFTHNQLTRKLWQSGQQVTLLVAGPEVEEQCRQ
Sequence of PDLIM1, O00151 (O00151 1-87): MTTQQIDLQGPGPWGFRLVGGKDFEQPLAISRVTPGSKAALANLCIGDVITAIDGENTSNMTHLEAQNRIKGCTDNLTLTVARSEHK
Sequence of MAGI3_2, Q5TCQ9 (Q5TCQ9 398-503): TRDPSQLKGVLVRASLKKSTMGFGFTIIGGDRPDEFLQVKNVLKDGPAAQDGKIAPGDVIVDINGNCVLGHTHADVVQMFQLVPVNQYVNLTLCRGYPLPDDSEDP
Sequence of Inadl_4, Q8NI35 (Q8NI35 547-651): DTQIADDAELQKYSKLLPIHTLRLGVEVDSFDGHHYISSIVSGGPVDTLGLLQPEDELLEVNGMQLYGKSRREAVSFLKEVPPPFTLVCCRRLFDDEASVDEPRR
Sequence of PTPN3, P26045 (P26045 505-587): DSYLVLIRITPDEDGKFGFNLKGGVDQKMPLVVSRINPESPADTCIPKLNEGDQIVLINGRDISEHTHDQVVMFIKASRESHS
Sequence of Inadl_1, Q8NI35 (Q8NI35 113-229): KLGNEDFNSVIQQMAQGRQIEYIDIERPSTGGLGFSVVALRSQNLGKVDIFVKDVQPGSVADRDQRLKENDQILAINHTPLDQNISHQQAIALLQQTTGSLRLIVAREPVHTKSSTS
Sequence of Inadl_6, Q8NI35 (Q8NI35 1058-1167): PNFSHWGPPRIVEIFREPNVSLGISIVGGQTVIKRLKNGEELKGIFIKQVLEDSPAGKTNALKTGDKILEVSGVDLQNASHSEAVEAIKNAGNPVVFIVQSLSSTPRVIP
Sequence of MAGI2_3, Q86UL8 (Q86UL8 600-682): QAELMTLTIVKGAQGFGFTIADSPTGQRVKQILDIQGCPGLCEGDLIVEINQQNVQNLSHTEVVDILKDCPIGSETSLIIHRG
Sequence of FRMPD2_1, Q68DX3 (Q68DX3 770-861): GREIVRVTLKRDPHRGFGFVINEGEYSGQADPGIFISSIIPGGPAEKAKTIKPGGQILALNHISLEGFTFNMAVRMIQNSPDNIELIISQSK
Sequence of Inadl_10, Q8NI35 (Q8NI35 1673-1763): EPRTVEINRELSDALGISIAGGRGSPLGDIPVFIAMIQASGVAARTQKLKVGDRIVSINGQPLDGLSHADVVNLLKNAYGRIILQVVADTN
Sequence of NOS1, P29475 (P29475 9-101): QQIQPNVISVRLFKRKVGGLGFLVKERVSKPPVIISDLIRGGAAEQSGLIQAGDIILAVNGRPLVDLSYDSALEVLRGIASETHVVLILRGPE
Sequence of PDZRN4_1, Q6ZMN7 (Q6ZMN7 213-318): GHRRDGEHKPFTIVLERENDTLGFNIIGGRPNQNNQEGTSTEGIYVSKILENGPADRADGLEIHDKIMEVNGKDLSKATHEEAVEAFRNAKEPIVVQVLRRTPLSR
Sequence of FRMPD3, Q5JV73 (Q5JV73 12-100): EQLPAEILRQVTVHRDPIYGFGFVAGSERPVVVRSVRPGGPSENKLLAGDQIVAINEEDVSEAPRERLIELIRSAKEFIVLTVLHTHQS
Sequence of LNX1_3, Q8TBB1 (Q8TBB1 500-596): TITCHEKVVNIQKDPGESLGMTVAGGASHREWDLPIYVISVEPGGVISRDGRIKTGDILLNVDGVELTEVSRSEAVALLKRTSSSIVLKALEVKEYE
Sequence of FRMPD4, Q14CM0 (Q14CM0 67-160): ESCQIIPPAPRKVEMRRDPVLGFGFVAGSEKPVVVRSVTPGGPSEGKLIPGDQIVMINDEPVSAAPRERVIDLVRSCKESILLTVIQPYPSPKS

B1: DOCK4, Q8N1I0 (peptide)
chain: RPLPRKVSQL
4.17: DLG2_3, Q15700; [1]
3.97: APBA1_2, Q02410; [1]
4.73: PTPN3, P26045; [1]
4.5: PDZD7_3, Q9H5P4; [1]
4.69: MAGI3_2, Q5TCQ9; [1]
3.5: PDZRN4_1, Q6ZMN7; [1]
below the threshold: DFNB31_3, Q9P202; [1] | FRMPD1, Q5SYB0; [1] | FRMPD2_1, Q68DX3; [1] | FRMPD3, Q5JV73; [1] | FRMPD4, Q14CM0; [1] | GRIP1_4, Q9Y3R0; [1] | GRIP1_5, Q9Y3R0; [1] | Inadl_1, Q8NI35; [1] | Inadl_10, Q8NI35; [1] | Inadl_4, Q8NI35; [1] | Inadl_6, Q8NI35; [1] | LNX1_3, Q8TBB1; [1] | LNX2_2, Q8N448; [1] | MAGI2_3, Q86UL8; [1] | MPDZ_5, O75970; [1] | NHERF4_2, Q86UT5; [1] | NOS1, P29475; [1] | PARD3B_1, Q8TEW8; [1] | PDLIM1, O00151; [1] | SHANK1, Q9Y566; [1] | SIPA1L2, Q9P2F8; [1]

B2: NHERF2, Q15599 (peptide)
chain: NRKREIFSNF
below the threshold: APBA1_2, Q02410; [2] | DFNB31_3, Q9P202; [2] | DLG2_3, Q15700; [2] | FRMPD1, Q5SYB0; [2] | FRMPD2_1, Q68DX3; [2] | FRMPD3, Q5JV73; [2] | FRMPD4, Q14CM0; [2] | GRIP1_4, Q9Y3R0; [2] | GRIP1_5, Q9Y3R0; [2] | Inadl_1, Q8NI35; [2] | Inadl_10, Q8NI35; [2] | Inadl_4, Q8NI35; [2] | Inadl_6, Q8NI35; [2] | LNX1_3, Q8TBB1; [2] | LNX2_2, Q8N448; [2] | MAGI2_3, Q86UL8; [2] | MAGI3_2, Q5TCQ9; [2] | MPDZ_5, O75970; [2] | NHERF4_2, Q86UT5; [2] | NOS1, P29475; [2] | PARD3B_1, Q8TEW8; [2] | PDLIM1, O00151; [2] | PDZD7_3, Q9H5P4; [2] | PDZRN4_1, Q6ZMN7; [2] | PTPN3, P26045; [2] | SHANK1, Q9Y566; [2] | SIPA1L2, Q9P2F8; [2]

B3: HPV49-L2, P36762 (peptide)
chain: RRRKRKRTYL
4.31: PDZD7_3, Q9H5P4; [2]
3.71: NOS1, P29475; [2]
3.54: DLG2_3, Q15700; [2]
3.53: FRMPD4, Q14CM0; [2]
3.5: FRMPD3, Q5JV73; [2]
3.98: APBA1_2, Q02410; [2]
3.55: PDZRN4_1, Q6ZMN7; [2]
3.78: FRMPD2_1, Q68DX3; [2]
3.52: PDLIM1, O00151; [2]
4.25: DFNB31_3, Q9P202; [2]
5.4: MAGI3_2, Q5TCQ9; [2]
3.72: PARD3B_1, Q8TEW8; [2] | PTPN3, P26045; [2]
4.32: SHANK1, Q9Y566; [2]
4.04: GRIP1_4, Q9Y3R0; [2]
below the threshold: FRMPD1, Q5SYB0; [2] | GRIP1_5, Q9Y3R0; [2] | Inadl_1, Q8NI35; [2] | Inadl_10, Q8NI35; [2] | Inadl_4, Q8NI35; [2] | Inadl_6, Q8NI35; [2] | LNX1_3, Q8TBB1; [2] | LNX2_2, Q8N448; [2] | MAGI2_3, Q86UL8; [2] | MPDZ_5, O75970; [2] | NHERF4_2, Q86UT5; [2] | SIPA1L2, Q9P2F8; [2]

B4: MLLT4_int, P55196 (peptide)
chain: YGIVQETTFDLGGDIH
below the threshold: APBA1_2, Q02410; [3] | FRMPD1, Q5SYB0; [3] | FRMPD2_1, Q68DX3; [3] | FRMPD3, Q5JV73; [3] | FRMPD4, Q14CM0; [3] | GRIP1_4, Q9Y3R0; [3] | GRIP1_5, Q9Y3R0; [3] | Inadl_1, Q8NI35; [3] | Inadl_10, Q8NI35; [3] | Inadl_4, Q8NI35; [3] | Inadl_6, Q8NI35; [3] | LNX1_3, Q8TBB1; [3] | LNX2_2, Q8N448; [3] | MAGI2_3, Q86UL8; [3] | MAGI3_2, Q5TCQ9; [3] | MPDZ_5, O75970; [3] | NHERF4_2, Q86UT5; [3] | NOS1, P29475; [3] | PARD3B_1, Q8TEW8; [3] | PDLIM1, O00151; [3] | PDZRN4_1, Q6ZMN7; [3] | SHANK1, Q9Y566; [3] | SIPA1L2, Q9P2F8; [3]
4.9: PDZD7_3, Q9H5P4; [3]
3.77: DLG2_3, Q15700; [3]
3.88: PTPN3, P26045; [3]
3.83: DFNB31_3, Q9P202; [3]

B5: PSCDBP, O60759 (peptide)
chain: RAVEEEESRF
below the threshold: APBA1_2, Q02410; [2] | DFNB31_3, Q9P202; [2] | DLG2_3, Q15700; [2] | FRMPD1, Q5SYB0; [2] | FRMPD2_1, Q68DX3; [2] | FRMPD3, Q5JV73; [2] | FRMPD4, Q14CM0; [2] | GRIP1_4, Q9Y3R0; [2] | GRIP1_5, Q9Y3R0; [2] | Inadl_1, Q8NI35; [2] | Inadl_10, Q8NI35; [2] | Inadl_4, Q8NI35; [2] | Inadl_6, Q8NI35; [2] | LNX1_3, Q8TBB1; [2] | LNX2_2, Q8N448; [2] | MAGI2_3, Q86UL8; [2] | MAGI3_2, Q5TCQ9; [2] | MPDZ_5, O75970; [2] | NHERF4_2, Q86UT5; [2] | PDLIM1, O00151; [2] | PDZD7_3, Q9H5P4; [2] | PDZRN4_1, Q6ZMN7; [2] | SIPA1L2, Q9P2F8; [2]
3.62: NOS1, P29475; [2]
4.06: PARD3B_1, Q8TEW8; [2]
4.77: SHANK1, Q9Y566; [2]
3.98: PTPN3, P26045; [2]
